B1: HH8 (ssDNA)
DNA: GTTGTTGTTGTTTTCAGACGGCATGTTGGTTCAGACGGCATTTGTTGTTGTT
B2: HH10HH11 (dsDNA DUS-) (dsDNA)
DNA 1: AACAACAACAAAAGGCCTGTCATCCAACTTCCGGACAGTAAACAACAACAAC
DNA 2: GTTGTTGTTGTTTACTGTCCGGAAGTTGGATGACAGGCCTTTTGTTGTTGTT
B3: T3 (ssDNA)
DNA: CAACAACAACAACAGGCCTGTCATCCAAAATGACAGGCCAACAACAACAACA
B4: T3T4 (dsDNA)
DNA 1: CAACAACAACAACAGGCCTGTCATCCAAAATGACAGGCCAACAACAACAACA
DNA 2: TGTTGTTGTTGTTGGCCTGTCATTTTGGATGACAGGCCTGTTGTTGTTGTTG
B5: T1 (ssDNA)
DNA: CAACAACAACAACAGCCGTCTGAACCAAATTCAGACGGCAACAACAACAACA
B6: T1T2 (dsDNA)
DNA 1: CAACAACAACAACAGCCGTCTGAACCAAATTCAGACGGCAACAACAACAACA
DNA 2: TGTTGTTGTTGTTGCCGTCTGAATTTGGTTCAGACGGCTGTTGTTGTTGTTG
B7: HH9 (ssDNA)
DNA: GTTGTTGTTGTTATGCCGTCTGAAGTTGGATGCCGTCTGAATTGTTGTTGTT

Key:
[1] = molecular target: PilG FL (Neisseria meningitidis MC58) (UniProt Q7DDR1); assay: EMSA; conditions: Optimized EMSA: 50 mM HEPES pH 7.5, 100 mM NaCl, 5 mM MgCl2, 1 mM DTT, 10% glycerol, 0.05% DDM, on ice 15 min, 0.45 nM DNA; first EMSA: 25 mM NaH2PO4 pH 8.0 …
PilG RKK43-45AAA = PilG RKK43-45AAA (Neisseria meningitidis MC58, UniProt Q7DDR1 1-410, R43A;K44A;K45A); assay: EMSA; extrapolated; about 50% bound at 5 uM per text; Optimized EMSA: 50 mM HEPES pH 7.5, 100 mM NaCl, 5 mM MgCl2, 1 mM DTT, 10% glycerol, 0.05% DDM, on ice 15 min, 0.45 nM DNA; first EMSA: 25 mM NaH2PO4 pH 8.0, 150 mM NaCl, 1 mM DTT, 10% glycerol, 0.05% DDM, on ice; conditions: protein: recombinant; tags: C-terminal 6xHis; label: 32P end label
PilG EEE39-41AAA [2] = molecular target: T1, PilG EEE39-41AAA (Neisseria meningitidis MC58, UniProt Q7DDR1 1-410, E39A;E40A;E41A); assay: South-western; increased vs FL per text; Optimized EMSA: 50 mM HEPES pH 7.5, 100 mM NaCl, 5 mM MgCl2, 1 mM DTT, 10% glycerol, 0.05% DDM, on ice 15 min, 0.45 nM DNA; first EMSA: 25 mM NaH2PO4 pH 8.0, 150 mM NaCl, 1 mM DTT, 10% glycerol, 0.05% DDM, on ice; conditions: protein: recombinant; tags: C-terminal 6xHis; label: 32P end label
PilG FL [3] = molecular target: T2, PilG FL (Neisseria meningitidis MC58, UniProt Q7DDR1 1-410); assay: EMSA; optimized EMSA; R2 0.91?; Optimized EMSA: 50 mM HEPES pH 7.5, 100 mM NaCl, 5 mM MgCl2, 1 mM DTT, 10% glycerol, 0.05% DDM, on ice 15 min, 0.45 nM DNA; first EMSA: 25 mM NaH2PO4 pH 8.0, 150 mM NaCl, 1 mM DTT, 10% glycerol, 0.05% DDM, on ice; conditions: protein: recombinant; tags: C-terminal 6xHis; label: 32P end label
PilG1-60 = PilG1-60 (Neisseria meningitidis MC58, UniProt Q7DDR1 1-60); assay: South-western; Optimized EMSA: 50 mM HEPES pH 7.5, 100 mM NaCl, 5 mM MgCl2, 1 mM DTT, 10% glycerol, 0.05% DDM, on ice 15 min, 0.45 nM DNA; first EMSA: 25 mM NaH2PO4 pH 8.0, 150 mM NaCl, 1 mM DTT, 10% glycerol, 0.05% DDM, on ice; conditions: protein: recombinant, tags: C-terminal 6xHis, label: 32P end label
PilG30-80 = PilG30-80 (Neisseria meningitidis MC58, UniProt Q7DDR1 30-80); assay: as above; conditions: protein: recombinant, tags: C-terminal 6xHis, label: 32P end label
PilG257-410 = PilG257-410 (Neisseria meningitidis MC58, UniProt Q7DDR1 257-410); assay: as above; conditions: protein: recombinant, tags: C-terminal 6xHis, label: 32P end label
PilG166-410 = PilG166-410 (Neisseria meningitidis MC58, UniProt Q7DDR1 166-410); assay: as above; conditions: protein: recombinant, tags: C-terminal 6xHis, label: 32P end label
PilG1-178 [4] = molecular target: T3, PilG1-178 (Neisseria meningitidis MC58, UniProt Q7DDR1 1-178); assay: EMSA; 5 mM MgCl2; Optimized EMSA: 50 mM HEPES pH 7.5, 100 mM NaCl, 5 mM MgCl2, 1 mM DTT, 10% glycerol, 0.05% DDM, on ice 15 min, 0.45 nM DNA; first EMSA: 25 mM NaH2PO4 pH 8.0, 150 mM NaCl, 1 mM DTT, 10% glycerol, 0.05% DDM, on ice; conditions: protein: recombinant; tags: C-terminal 6xHis; label: 32P end label; blunt
PilG1-256 = PilG1-256 (Neisseria meningitidis MC58, UniProt Q7DDR1 1-256); assay: South-western; Optimized EMSA: 50 mM HEPES pH 7.5, 100 mM NaCl, 5 mM MgCl2, 1 mM DTT, 10% glycerol, 0.05% DDM, on ice 15 min, 0.45 nM DNA; first EMSA: 25 mM NaH2PO4 pH 8.0, 150 mM NaCl, 1 mM DTT, 10% glycerol, 0.05% DDM, on ice; conditions: protein: recombinant, tags: C-terminal 6xHis, label: 32P end label
PilG1-178 [5] = molecular target: T3, PilG1-178; assay: as above; conditions: protein: recombinant, tags: C-terminal 6xHis, label: 32P end label
PilG1-80 = PilG1-80 (Neisseria meningitidis MC58, UniProt Q7DDR1 1-80); assay: as above; conditions: protein: recombinant, tags: C-terminal 6xHis, label: 32P end label
PilG1-140 = PilG1-140 (Neisseria meningitidis MC58, UniProt Q7DDR1 1-140); assay: as above; conditions: protein: recombinant, tags: C-terminal 6xHis, label: 32P end label
PilG FL [6] = molecular target: T2, PilG FL; assay: as above; conditions: protein: recombinant, tags: C-terminal 6xHis, label: 32P end label
PilG Q55A = PilG Q55A (Neisseria meningitidis MC58, UniProt Q7DDR1 1-410, Q55A); assay: South-western; same as FL; Optimized EMSA: 50 mM HEPES pH 7.5, 100 mM NaCl, 5 mM MgCl2, 1 mM DTT, 10% glycerol, 0.05% DDM, on ice 15 min, 0.45 nM DNA; first EMSA: 25 mM NaH2PO4 pH 8.0, 150 mM NaCl, 1 mM DTT, 10% glycerol, 0.05% DDM, on ice; conditions: protein: recombinant; tags: C-terminal 6xHis; label: 32P end label
PilG SS62-63AA = PilG SS62-63AA (Neisseria meningitidis MC58, UniProt Q7DDR1 1-410, S62A;S63A); assay: as above; conditions: protein: recombinant; tags: C-terminal 6xHis; label: 32P end label
PilG EEE39-41AAA [7] = molecular target: T1, PilG EEE39-41AAA; assay: South-western; increased vs FL; Optimized EMSA: 50 mM HEPES pH 7.5, 100 mM NaCl, 5 mM MgCl2, 1 mM DTT, 10% glycerol, 0.05% DDM, on ice 15 min, 0.45 nM DNA; first EMSA: 25 mM NaH2PO4 pH 8.0, 150 mM NaCl, 1 mM DTT, 10% glycerol, 0.05% DDM, on ice; conditions: protein: recombinant; tags: C-terminal 6xHis; label: 32P end label

Molecule	binding result (PilG1-60)	binding result (PilG30-80)	binding result (PilG257-410)	binding result (PilG166-410)	binding result (PilG1-256)	binding result (PilG1-178 [5])	binding result (PilG1-80)	binding result (PilG1-140)	binding result (PilG FL [6])	other results
52 bp dsDNA, S3 Fig										Kd [1]: 300 nM
B1	no binding	no binding	no binding	no binding						apparent K (half saturation) (PilG RKK43-45AAA): ~15.7 mM; binding result (PilG EEE39-41AAA [2]): binds; apparent K (half saturation) (PilG FL [3]): 1160 nM
B2										apparent K (half saturation) (PilG1-178 [4]): 269 nM
B3	no binding	no binding	no binding	no binding	binds	binds	binds	binds	binds	
B4										binding result (PilG1-60; blunt): no binding; binding result (PilG1-256; blunt): binds; binding result (PilG1-178 [5]; blunt): binds; binding result (PilG1-80; blunt): binds; binding result (PilG1-140; blunt): binds; binding result (PilG30-80; blunt): no binding; binding result (PilG FL [6]; blunt): binds; binding result (PilG257-410; blunt): no binding; binding result (PilG166-410; blunt): no binding
B5	no binding	no binding	no binding	no binding	binds	binds	binds	binds	binds	binding result (PilG Q55A): binds; binding result (PilG SS62-63AA): binds; binding result (PilG EEE39-41AAA [2]): binds
B6										binding result (PilG1-60; blunt): no binding; binding result (PilG1-256; blunt): binds; binding result (PilG1-178 [5]; blunt): binds; binding result (PilG1-80; blunt): binds; binding result (PilG1-140; blunt): binds; binding result (PilG30-80; blunt): no binding; binding result (PilG FL [6]; blunt): binds; binding result (PilG257-410; blunt): no binding; binding result (PilG166-410; blunt): no binding
B7	no binding	no binding	no binding	no binding	binds	binds	binds	binds	binds	binding result (PilG Q55A): binds; binding result (PilG SS62-63AA): binds; binding result (PilG EEE39-41AAA [7]): binds

Source: publication PMC4527729, “The Inner Membrane Protein PilG Interacts with DNA and the Secretin PilQ in Transformation”
